Laboratory results as given in patent publication US20210283212A1 (RA PHARMACEUTICALS, published 2021).
Where two headings read alike, the source gives them in different places. Starred links: 1 amine or outer side, 2 acyl side, 3 side chain; linkers in the order of their positions; H or OH if unused. Positions of bridges follow the written chain, without caps; N, C: chain ends. Non-standard residues stand in square brackets, D forms with d. Primed or numbered codes have the meaning given here. No end group written: not given here. *: point of attachment. mXylyl(3) = bridging moiety between the two residues given in brackets; m‑xylyl = bridging moiety between the two residues given in brackets; Lys(ivDde) = CC(C)CC(NCCCC[C@H](N)C(=O)O)=C1C(=O)CC(C)(C)CC1=O; Phe(3-CH2NH2) = O=C([C@H](Cc1cccc(CN[*:3])c1)N[*:1])[*:2]; mXylyl″ = bridging moiety between the two marked residues; Ala(1H-tetrazol-5-yl) = N[C@@H](Cc1nnn[nH]1)C(=O)O; Trp(5-F) = N[C@@H](Cc1c[nH]c2ccc(F)cc12)C(=O)O; Trp(7-aza) = N[C@@H](Cc1c[nH]c2ncccc12)C(=O)O; mXylyl(4) = bridging moiety between residues; Trp(1-Me) = Cn1cc(C[C@H](N)C(=O)O)c2ccccc21; 2Nal = N[C@@H](Cc1ccc2ccccc2c1)C(=O)O; Palmitoyl = CCCCCCCCCCCCCCCC(=O)*; NMeD = CN[C@@H](CC(=O)O)C(=O)O; Chg = N[C@H](C(=O)O)C1CCCCC1; Phg = N[C@H](C(=O)O)c1ccccc1; Tle = CC(C)(C)[C@H](N)C(=O)O; NMeS = CN[C@@H](CO)C(=O)O; Ac5c = NC1(C(=O)O)CCCC1; Nva = CCC[C@H](N)C(=O)O; Thp = NC1(C(=O)O)CCOCC1; Aib = CC(C)(N)C(=O)O; Mpa = O=C(O)CCS

Assays:
Assay in all cases: cell-based or functional assay
[1] = biological target: T1, human C5 protein (human, UniProt P01031 19-673; P01031 678-1676)
[2] = biological target: T1, human C5 protein; remark: listed apart in the source
[3] = biological target: T1, human C5 protein; remark: listed apart in the source
[4] = biological target: T1, human C5 protein; remark: listed apart in the source

| Binder | Avg. IC50, hemolysis assay with C5 depleted sera [1] | Avg. IC50, human hemolysis assay [2] | other results |
| --- | --- | --- | --- |
| Ac-CVERFCD[Tle]Y[Trp(7-aza)]E[2Nal]P[Chg][Nva] (linker 1-6 via m‑xylyl) [R3180] | 29 nM | – | – |
| Ac-KVERFD[NMeD][Tle]YWEYP[Chg]K (lactam 1-6) [R3196] | 3 nM | – | – |
| Ac-[Nva]C[Phg][Aib][Trp(7-aza)]EY[NMeS]HC[Nva]-NH2 (linker 2-10 via mXylyl(3)) [R3096] | – | > 50000 nM | – |
| Ac-CVERFC[Ac5c][Tle]Y[Trp(7-aza)]EYP[Chg][Nva] (linker 1-6 via m‑xylyl) [R3185] | 12.5 nM | – | – |
| Ac-YEN[Tle]Y[Trp(1-Me)]EYP[Phg][Nva]-NH2 (SMILES CCC[C@H](NC(=O)[C@@H](NC(=O)[C@@H]1CCCN1C(=O)[C@H](Cc1ccc(O)cc1)NC(=O)[C@H](CCC(=O)O)NC(=O)[C@H](Cc1cn(C)c2ccccc12)NC(=O)[C@H](Cc1ccc(O)cc1)NC(=O)[C@@H](NC(=O)[C@H](CC(N)=O)NC(=O)[C@H](CCC(=O)O)NC(=O)[C@H](Cc1ccc(O)cc1)NC(C)=O)C(C)(C)C)c1ccccc1)C(N)=O) [R3110] | – | 2940 nM | Avg. IC50 (nM), human hemolysis assay [3]: 2940 nM |
| Ac-[Nva]C[Phg]T[Trp(5-F)]EY[NMeS]AC[Nva]-NH2 (linker 2-10 via mXylyl(3)) [R3088] | – | > 100000 nM | Avg. IC50 (nM), human hemolysis assay [4]: > 100000 nM |
| Ac-[Nva]C[Phg]T[Trp(7-aza)]EF[NMeS]AC[Nva]-NH2 (linker 2-10 via mXylyl(3)) [R3100] | – | 626 nM | – |
| Ac-[Nva]C[Phg]TWEY[NMeS]AC[Nva]-NH2 (linker 2-10 via mXylyl(3)) [R3091] | – | 483 nM | Avg. IC50 (nM), human hemolysis assay [4]: 483 nM |
| Ac-YENY[dW]EYP[Phg][Nva]-NH2 (SMILES CCC[C@H](NC(=O)[C@@H](NC(=O)[C@@H]1CCCN1C(=O)[C@H](Cc1ccc(O)cc1)NC(=O)[C@H](CCC(=O)O)NC(=O)[C@@H](Cc1c[nH]c2ccccc12)NC(=O)[C@H](Cc1ccc(O)cc1)NC(=O)[C@H](CC(N)=O)NC(=O)[C@H](CCC(=O)O)NC(=O)[C@H](Cc1ccc(O)cc1)NC(C)=O)c1ccccc1)C(N)=O) [R3119] | – | > 100000 nM | Avg. IC50 (nM), human hemolysis assay [3]: > 100000 nM |
| Ac-[Nva]C[Phg]TW[Ala(1H-tetrazol-5-yl)]Y[NMeS]HC[Nva]-NH2 (linker 2-10 via mXylyl(3)) [R3131] | – | > 100000 nM | Avg. IC50 (nM), human hemolysis assay [4]: > 100000 nM |
| Ac-[Nva]C[Phg]T[Trp(7-aza)]DY[NMeS]AC[Nva]-NH2 (linker 2-10 via mXylyl(3)) [R3097] | – | > 100000 nM | – |
| Ac-[Nva]C[Phg]T[dW]EY[NMeS]HC[Nva]-NH2 (linker 2-10 via mXylyl(3)) [R3132] | – | > 100000 nM | Avg. IC50 (nM), human hemolysis assay [4]: > 100000 nM |
| [Mpa]VERFC[NMeD][Tle]Y[Trp(7-aza)]EYP[Chg]K(Palmitoyl) (bridge 1-6; also: cyclo(1,6) between Cys1 and Cys6, ring kind not given here) [R3198] | 142 nM | – | – |
| Ac-[Nva]CYEN[Tle]YCEYP[Phg][Nva]-NH2 (linker 2-8 via mXylyl″) [R3017] | – | > 100000 nM | Avg. IC50 (nM), human hemolysis assay [3]: > 100000 nM |
| Ac-KVERFD[NMeD][Tle]Y[Trp(7-aza)]EYP[Chg]K(Palmitoyl)-NH2 (lactam 1-6; SMILES CCCCCCCCCCCCCCCC(=O)NCCCC[C@H](NC(=O)[C@@H](NC(=O)[C@@H]1CCCN1C(=O)[C@H](Cc1ccc(O)cc1)NC(=O)[C@H](CCC(=O)O)NC(=O)[C@H](Cc1c[nH]c2ncccc12)NC(=O)[C@H](Cc1ccc(O)cc1)NC(=O)[C@@H](NC(=O)[C@H](CC(=O)O)N(C)C(=O)[C@@H]1CC(=O)NCCCC[C@H](NC(C)=O)C(=O)N[C@@H](C(C)C)C(=O)N[C@@H](CCC(=O)O)C(=O)N[C@@H](CCCNC(=N)N)C(=O)N[C@@H](Cc2ccccc2)C(=O)N1)C(C)(C)C)C1CCCCC1)C(N)=O) [R3194] | 15.5 nM | – | – |
| [Mpa][dA]ERFC[NMeD][Tle]Y[Trp(7-aza)]EYP[Chg]K(Palmitoyl) (bridge 1-6; also: cyclo(1,6) between Cys1 and Cys6, ring kind not given here) [R3199] | 112 nM | – | – |

| Binder | Avg. IC50, hemolysis assay with C5 depleted sera [1] | Avg. IC50, human hemolysis assay [2] | other results |
| --- | --- | --- | --- |
| Ac-CVERFCD[Tle]Y[Phe(3-CH2NH2)]EYP[Chg][Nva] (linker 1-6 via m‑xylyl) [R3181] | 1500 nM | – | – |
| Ac-[Nva]C[Phg]T[Trp(1-Me)]EY[NMeS]AC[Nva]-NH2 (linker 2-10 via mXylyl(3)) [R3109] | – | > 100000 nM | Avg. IC50 (nM), human hemolysis assay [4]: > 100000 nM |
| Ac-CVERFC[Thp][Tle]Y[Trp(7-aza)]EYP[Chg][Nva] (linker 1-6 via mXylyl(3)) [R3186] | 18 nM | – | – |
| Ac-KVERFD[NMeD][Tle]YWEYP[Chg]K(Palmitoyl) (lactam 1-6) [R3195] | 62.5 nM | – | – |
| VERFCD[Tle]Y[Trp(7-aza)]EYP[Chg][Nva] (thioether 1-5) [R3184] | 4 nM | – | – |
| Ac-[Nva]C[Phg]T[Trp(7-aza)]NY[NMeS]AC[Nva]-NH2 (linker 2-10 via mXylyl(3)) [R3099] | – | > 100000 nM | – |
| Ac-[Nva]C[Phg]TFEY[NMeS]AC[Nva]-NH2 (linker 2-10 via mXylyl(3)) [R3092] | – | > 50000 nM | Avg. IC50 (nM), human hemolysis assay [4]: > 50000 nM |
| Ac-CAERFCD[Tle]Y[Trp(7-aza)]EYP[Phg]K(Palmitoyl) (linker 1-6 via m‑xylyl) [R3189] | 81.5 nM | – | – |
| Ac-KVERFD[NMeD][Tle]Y[Trp(7-aza)]EYP[Chg]K-NH2 (lactam 1-6; SMILES CC(=O)N[C@H]1CCCCNC(=O)C[C@@H](C(=O)N(C)[C@@H](CC(=O)O)C(=O)N[C@H](C(=O)N[C@@H](Cc2ccc(O)cc2)C(=O)N[C@@H](Cc2c[nH]c3ncccc23)C(=O)N[C@@H](CCC(=O)O)C(=O)N[C@@H](Cc2ccc(O)cc2)C(=O)N2CCC[C@H]2C(=O)N[C@H](C(=O)N[C@@H](CCCCN)C(N)=O)C2CCCCC2)C(C)(C)C)NC(=O)[C@H](Cc2ccccc2)NC(=O)[C@H](CCCNC(=N)N)NC(=O)[C@H](CCC(=O)O)NC(=O)[C@H](C(C)C)NC1=O) [R3192] | 1.5 nM | – | – |
| Ac-CVERFCD[Tle]Y[Trp(7-aza)]EWP[Chg][Nva] (linker 1-6 via m‑xylyl) [R3177] | 12 nM | – | – |
| Ac-[Nva]CYNN[Tle]ECEYP[Phg][Tle]-NH2 (cysteine pairing not given here) [R3128] | – | > 100000 nM | Avg. IC50 (nM), human hemolysis assay [3]: > 100000 nM |
| Ac-[Nva]C[Phg]TAEY[NMeS]HC[Nva]-NH2 (linker 2-10 via mXylyl(4)) [R3034] | – | > 50000 nM | Avg. IC50 (nM), human hemolysis assay [4]: > 50000 nM |
| Ac-CVERFCD[Tle]Y[Trp(7-aza)]E[(m-Cl-homo)Phe]P[Chg][Nva] (linker 1-6 via m‑xylyl) [R3179] | 83 nM | – | – |
| Ac-[Nva]C[Phg]T[Trp(7-aza)]QY[NMeS]AC[Nva]-NH2 (linker 2-10 via mXylyl(3)) [R3098] | – | > 100000 nM | – |
| Ac-KVERFD[NMeD][Tle]YWEYP[Chg][Lys(ivDde)] (lactam 1-6) [R3197] | 4 nM | – | – |
| Ac-[Nva]CYNN[Tle]ECEYP[Phg][Tle]-NH2 (linker 2-8 via mXylyl(3)) [R3129] | – | > 100000 nM | Avg. IC50 (nM), human hemolysis assay [3]: > 100000 nM |
